These results are taken from US10792367B2, “Conjugates comprising an GLP-1/glucagon dual agonist, a linker and hyaluronic acid” (SANOFI, dated 2020).

The assay concerns the target human GLP-1 receptor (human, UniProt P43220). Briefly: cell-based or functional assay.

Starred links: 1 amine or outer side, 2 acyl side, 3 side chain; linkers in the order of their positions; H or OH if unused. Non-standard residues stand in square brackets, D forms with d. Groups on a side chain read outwards from the residue. No end group written: not given here. *: point of attachment. γGlu = O=C(O)[C@H](CCC(=O)[*:2])N[*:1]; Stearoyl = CCCCCCCCCCCCCCCCCC(=O)*

H[dS]QGTFTSDLSKQK([γGlu-Stearoyl])DEQLAKDFIEWLKAGGPSSGAPPPS-NH2 [peptide of SEQ ID NO: 6 (GLP-1/Glucagon agonist, exendin-4 derivative)]: the “EC50 hGLP-1R (cAMP response, HTRF)” value came to 5.1 pM.
